Experimental data published in patent US20090285843A1, “EPITOPE SEQUENCES” (Mannkind Corporation, priority 2002, published 2009).
Values belong to the substance of their own block, whether it stands above or below them.

Columns and labels:
[1] = molecular target: HLA-A2.1 (Homo sapiens, UniProt P04439, D140Y/D185E/D98H/E176V/E277Q/G131W/G231S/I119V/I121R/I166T/I218V/L300P/L318F/N151K/N90K/P208A/P217A/Q86G/Q94H/R138H/R169H/T345S); assay: HLA-A0201 binding assay (T2 cells, flow cytometry); conditions: for binding to HLA-A2.1: T2 cells, flow cytometry, compared with control peptides
[2] = test system: HLA-A1+ CD8+ T cells; assay: gamma-IFN-based ELISPOT assay; format: cell-based, human; conditions: blocking of gamma IFN production by anti-HLA-A1 monoclonal antibody
Protocol: The wells of a nitrocellulose-backed microtiter plate were coated with capture antibody by incubating overnight at 4° C. using 50 μl (microliter)/well of 4 μg/ml murine anti-human γ (gamma)-IFN monoclonal antibody in coating buffer (35 mM sodium bicarbonate, 15 mM sodium carbonate, pH 9.5). Unbound antibody was removed by washing 4 times 5 min. with PBS. Unbound sites on the membrane then were blocked by adding 200 μl (microliter)/well of RPMI medium with 10% serum and incubating 1 hr. at room temperature. Antigen stimulated CD8^+ T cells, in 1:3 serial dilutions, were seeded into the wells of the microtiter plate using 100 μl (microliter)/well, starting at 2×10^5 cells/well. (Prior antigen stimulation was essentially as described in Scheibenbogen, C. et al. Int. J. […] PSMA462-471 (SEQ ID NO. 62) was added to a final concentration of 10 μg/ml and IL-2 to 100 U/ml and the cells cultured at 37° C. in a 5% CO2, water-saturated atmosphere for 40 hrs. Following this incubation the plates were washed with 6 times 200 μl (microliter)/well of PBS containing 0.05% Tween-20 (PBS-Tween). […] The plate was air dried and the spots counted using a stereomicroscope. […] No reactivity is detected from cultures without peptide (data not shown).

[3] = test system: metastatic melanoma; conditions: first 15 patients; intradermal peptide with IL-12; cited from earlier work
[4] = test system: peptide pulsed T2 cells; assay: In vitro immunization of HLA-A2+ blood (CTL induction cultures), chromium release assay; format: cell-based, human
Protocol: (§1) , tyrosinase207-215 (SEQ ID NO. 8) was used in an in vitro immunization of HLA-A2^+ blood to generate CTL (see CTL Induction Cultures below).
(§2) PBMCs from normal donors were purified by centrifugation in Ficoll-Hypaque from buffy coats. All cultures were carried out using the autologous plasma (AP) to avoid exposure to potential xenogeneic pathogens and recognition of FBS peptides. To favor the in vitro generation of peptide-specific CTL, we employed autologous dendritic cells (DC) as APCs. DC were generated and CTL were induced with DC and peptide from PBMCs as described (Keogh et al., 2001). Briefly, monocyte-enriched cell fractions were cultured for 5 days with GM-CSF and IL-4 and were cultured for 2 additional days in culture media with 2 μg/ml CD40 ligand to induce maturation. 2×10^6 CD8+-enriched T lymphocytes/well and 2×10^5 peptide-pulsed DC/well were co-cultured in 24-well plates in 2 ml RPMI supplemented with 10% AP, 10 ng/ml IL-7 and 20 IU/ml IL-2. Cultures were restimulated on days 7 and 14 with autologous irradiated peptide-pulsed DC.

[5] = test system: 624.38; assay: In vitro induced CTL, chromium release assay on tumor cell line; format: cell-based, human; conditions: 624.38, HLA-A2+, tyrosinase+
Protocol: as §1, §2

[6] = test system: HTB64; assay: as above; format: cell-based, human; conditions: HTB64, HLA-A2+, tyrosinase+
Protocol: as §1, §2

[7] = molecular target: T1, proteasome isolated from human red blood cells (Homo sapiens, UniProt P28072+P28074+Q99436); assay: N-terminal pool sequence analysis of proteasomal digest; format: biochemical; conditions: in vitro proteasome digestion and N-terminal pool sequencing
T1 construct: from tissue; host or cells: human red blood cells
From the text: One aliquot at one hour of the proteasomal digestion (see Example 3 part 3 above) was subjected to N-terminal amino acid sequence analysis by an ABI 473A Protein Sequencer (Applied Biosystems, Foster City, Calif.). Determination of the sites and efficiencies of cleavage was based on consideration of the sequence cycle, the repetitive yield of the protein sequencer, and the relative yields of amino acids unique in the analyzed sequence. That is if the unique (in the analyzed sequence) residue X appears only in the nth cycle a cleavage site exists n−1 residues before it in the N-terminal direction.

[8] = test system: peptide pulsed T2 cells; assay: In vivo immunization of mice, in vitro stimulation, chromium-release assay measuring CTL activity; parameters: species or system HHD1 transgenic A*0201 mice; conditions: 100 nmol peptide s.c. with HTL epitope peptide in IFA; 51Cr-release
Protocol: Using spleens from 2 naive mice for each group of immunized mice, un-immunized mice were sacrificed and the carcasses were placed in alcohol. Using sterile instruments, the top dermal layer of skin on the mouse's left side (lower mid-section) was cut through, exposing the peritoneum. The peritoneum was saturated with alcohol, and the spleen was aseptically extracted. The spleen was placed in a petri dish with serum-free media. Splenocytes were isolated by using sterile plungers from 3 ml syringes to mash the spleens. Cells were collected in a 50 ml conical tubes in serum-free media, rinsing dish well. Cells were centrifuged ([…], 7 min) and washed one time with RPMI. Fresh spleen cells were resuspended to a concentration of 1×10^6 cells per ml in RPMI-10% FCS (fetal calf serum). 25 µg/ml lipopolysaccharide and 7 μg/ml Dextran Sulfate were added. Cell were incubated for 3 days in T-75 flasks at 37° C., with 5% CO2. Splenic blasts were collected in 50 ml tubes pelleted ([…], 7 min) and resuspended to 3×10^7/ml in RPMI. The blasts were pulsed with the priming peptide at 50 μg/ml, RT 4 hr. mitomycin C-treated at 25 μg/ml, 37° C., 20 min and washed three times with DMEM. […]
During incubation they were gently shaken every 15 minutes. […] Supernatants were harvested and counted using a gamma counter.

[9] = test system: tumor cells expressing other SSX proteins; assay: Cross-reactivity of CTL with other SSX proteins; format: cell-based
From the text: The surrounding regions have also been generally well conserved. Thus the housekeeping proteasome can cleave following V49 in all five sequences.

Substance: YTLRVDCTPL (listed as Homo sapiens) [PSMA460-469]
- binding to HLA-A2.1 [1]: bind HLA-A2.1 to a similar extent as the known A2.1 binder FLPSDYFPSV

Substance: RVDCTPLMY [PSMA463-471]
- HLA restriction of response [2]: HLA-A1-restricted response

- binding activity compared between the two PSMA peptides ([1]; not run in parallel, comparison to the controls): superior binding activity
Substance: RMMNDQLMFL (listed as Homo sapiens) [PSMA662-671]
- binding to HLA-A2.1 [1]: significant binding at even lower concentrations than the positive control peptide

Substance: MART-126-35 peptide: MART-1 26-35 peptide given intradermally with IL-12 to metastatic melanoma patients (Cebon et al.)
- clinical response [3]: 1 complete remission, 1 partial remission, and 1 mixed response

Substance: GMPEGDLVYV (listed as Homo sapiens) [PSMA168-177]
- binding to HLA-A2.1 [1]: significant binding at even lower concentrations than the positive control peptides

- binding to HLA-A2.1 [1]: more significant binding
Substance: FLPWHRLFL (listed as Homo sapiens) [tyrosinase207-215]
- immunogenicity ([4]; compared with the other tyrosinase length variant): superior immunogenicity
- recognition of tyrosinase207-216 targets by CTL induced by the peptide ([4]; peptide pulsed T2 cells, standard chromium release assay): equally well
- recognition of tumor cell line by CTL induced by the peptide [5]: recognize
- recognition of tumor cell line by CTL induced by the peptide [6]: recognize

- relative production by in vitro proteasome digestion [7]: produced more commonly
Substance: FLPWHRLFLL (listed as Homo sapiens) [Tyrosinase207-216]

Substance: MMNDQLMFL [PSMA663-671]
- binding to HLA-A2.1 [1]: significant binding at even lower concentrations than the positive control peptide

Substance: GLPSIPVHPI (listed as Homo sapiens) [PSMA288-297]
- binding to HLA-A2.1 [1]: significant binding at even lower concentrations than the positive control peptides

Substance: KASEKIFYV [SSX-241-49]
- binding to HLA-A2.1 [1]: bind HLA-A2.1 to a similar extent as the known A2.1 binder FLPSDYFPSV
- specific lysis of peptide pulsed targets by CTL from immunized mice [8]: specific lysis
- cross-reactivity of CTL generated by immunization [9]: cross-react with tumor cells expressing other SSX proteins

- binding to HLA-A2.1 [1]: binds nearly as well
Substance: TLRVDCTPL (listed as Homo sapiens) [PSMA461-469]
